In assay [1] the target is SMALP-Sf-ABCC2-FLAG (Sf-ABCC2 extracted from silkworm pupae membranes with styrene maleic acid and affinity purified) (Spodoptera frugiperda). Nature of the assay: immuno-magnetic separation with SMALP-Sf-ABCC2 and anti-FLAG magnetic beads; colonies on LB-tet.
In assay [2] the target is T1, Spore-Cry1Aa (Bacillus subtilis spores displaying the Bacillus thuringiensis Cry1Aa protein as a … (Bacillus thuringiensis, UniProt P0A366 1-621)).
T1 construct: vector pSB634 or pHY300PLK
Briefly: flow cytometry of spores labelled with Bm-ABCC2, anti-FLAG mouse antibody and Alexa-labelled anti-mouse IgG, after a wash with 0.2% SDS.

Assay [3] addresses T2, Spore-Cry1Fa (Bacillus subtilis spores displaying the Bacillus thuringiensis Cry1Fa protein as a … (Bacillus thuringiensis, UniProt Q03746 1-615)).
T2 construct: vector pSB634 or pHY300PLK
T2 sequence: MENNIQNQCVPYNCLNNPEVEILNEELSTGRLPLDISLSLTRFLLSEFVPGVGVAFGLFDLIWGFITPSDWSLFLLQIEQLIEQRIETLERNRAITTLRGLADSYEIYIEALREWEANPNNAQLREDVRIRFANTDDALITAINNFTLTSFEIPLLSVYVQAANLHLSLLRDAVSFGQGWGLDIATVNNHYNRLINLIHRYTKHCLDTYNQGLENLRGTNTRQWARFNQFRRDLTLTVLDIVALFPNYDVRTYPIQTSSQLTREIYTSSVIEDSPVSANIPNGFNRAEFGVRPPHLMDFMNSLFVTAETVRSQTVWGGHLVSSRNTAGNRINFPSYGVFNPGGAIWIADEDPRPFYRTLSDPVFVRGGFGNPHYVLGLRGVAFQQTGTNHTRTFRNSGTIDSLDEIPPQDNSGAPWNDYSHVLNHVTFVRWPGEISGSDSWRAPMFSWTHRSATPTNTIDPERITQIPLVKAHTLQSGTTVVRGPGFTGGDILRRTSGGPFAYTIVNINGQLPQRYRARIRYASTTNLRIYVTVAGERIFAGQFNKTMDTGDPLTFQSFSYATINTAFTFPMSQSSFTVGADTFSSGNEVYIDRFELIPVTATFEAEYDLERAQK
Nature of the assay: microscopy of spores on Sf9 cells expressing Sf-ABCC2.

Assay [4] has as its target T2, Spore-Cry1Fa (Bacillus subtilis spores …). Briefly: immuno-magnetic separation with anti-FLAG magnetic beads.

For “Spore-pSB634 (Bacillus subtilis spores carrying the empty vector pSB634, no Cry protein displayed)”, in assay [1], the spores (colonies) pulled out by the magnetic beads from 10^6 spores (spores (colonies)) turned out to be 9.

B1: Bm-ABCC2 solubilized in 1% Triton X100 and affinity purified (C-terminal FLAG tag) (receptor)
chain: MNSDGRAGENSSAETRRKPHKPNILSRIFLWWMCPVLVKGNQRDTVEDDLIIPKKSFNSENQGEYLERYWLQEYEAAIKEKREPSLWTALRKAYWLGYMPGAIYLIIISVFRIIQPLVFAELLSYWSVEATITRLEASYYALALLGINFINMMCQHHNSLFVARFGLKVKVACSSLVYRKLLRMDQVALGDVSGGKLVNLLSNDVARFDYAFMFLHYLWVVPVQAAVVLYFLYISAGYAPFVGFFGVVILILPIQAGLTKLTSVVRRETAQRTDRRIKLMTEIINGIQVIKMYAWEKPFQAIVKVARNFEMIALRKSIFIRSVFLGFMLFTERSIIFITCLTFLLTGNLVTATLIYPIQQYISIIQINLTMILPLAIASLSEMLVSLERIQNFLVKDEREDVQITPKSYGDDNRLIFNNKASLGPQNEIIPKKYLATDGQLASTLTNEPVLSTDPAVCDYPIELSKVDATWSSSTDTSEMTLRNITLRIGRGKLCAIIGPVGSGKSSILQVLLKELPVCGGSLRINGRLSYACQESWLFPATVRENILFGLPYDSQKYHEVCKACSLLPDFKQFPYGDLSLVGERGVSLSGGQRARINLARAVYREADIYLLDDPLSAVDANVGRQLFDGCIKGYLRGRTCVLVTHQIHYLKAADIIVILNEGAIENVGSYDDLVNTGTEFSKLLTNQESNDNENGPEKNFLRAISKISTKSVEDPDNEKVQVEEEEKRAKGNLKFSVLYKYLSAVKSWFLVFLMVVTLVITQGCATFIDYWLSFWTNQVDEYEQSLAEGEEPSTSLDTQAGAFTLGVYLWTYGGVILILIVISHVRILTFVITTMRASSNFHDTVYKKLIITVMRFFDMNPSGRVLNRFSKDMGAMDEFLPRSLFETVQMYLTLCSILILNAIALPWTLIPTAVLLILFFVLLKWYLNAAQAVKRLEGTTKSPVLGMINSTLTGLSTIRSSNSQGRLLQMFDNAQNLHTSAFYTFVGGSTAFGLYLDALCLVYLGVILTIFLVIDFSTLIPVGSVGLAVSQSMVLTMMLQMAARFTADFLGQMTAVERVLEYTELPMEENMYDGSQLPKDWPTHGRIEFQNLFLNYSQEDPPVLKDLNFVIENGWKVGVVGRTGAGKSSMISALFRLYELQGHIRIDGIDTNIIAKTELRSKISIIPQEPILFSASVRYNLDPFDSYSDDEIWRALEQVELKEVIPALDYKVSEGGSNFSVGQRQLVCLARAVLRSNKILVMDEATANVDPQTDALIQTTIRREFASCTVITIAHRLNTIMDSDRVLVMDKGVVAEYDTPYALLSDPNSIFSSMVRETGDTMSKVLFRVAEDKHLGRNTEKDYKDDDDK
Take B1: the binding result in assay [2] is on record as “binds”.

B2: Sf-ABCC2 (Spodoptera frugiperda ABC transporter subfamily C type 2, C-terminal FLAG tag) expressed on Sf9 cells (receptor)
chain: MDKSNKNTAANGNGGQRAGEPKKRVRKKPNILSRIFVWWIFPVLITGNKRDVEEDDLIVPSKKFNSERQGEYFERYWFEEVAIAEREDRDPSLWKAMRRAYWLQYMPGAIFVLLISGLRTAQPLLFSQLLSYWSVDSEMSQQDAGLYALAMLGINFITMMCTHHNNLFVMRFSMKVKIAASSLLFRKLLRMSQVSVGDVAGGKLVNLLSNDVARFDYAFMFLHYLWVVPLQVGVVLYFVYDAAGWAPYVGLFGVIILIMPLQAGLTKLTGVVRRMTAKRTDKRIKLMSEIINGIQVIKMYAWEKPFQLVVKAARAYEMSALRKSIFIRSMFLGFMLFTERSVMFLTVLTLALTGNMISATLIYPIQQYFGIITMNVTLILPMAFASFSEMLISLERIQGFLLLDERSDIQITPKVVNGAGSKLFNNSKKEGGLETGIVLPTKYSPTEASIARPVQDEPNMADYPVQLNKVNATWADLNDNKEMTLKNISLRVRKNKLCAVIGPVGSGKTSLLQLLLRELPVTSGNLSISGTVSYASQEPWLFPATVRENILFGLEYNVAKYKEVCKVCSLLPDFKQFPYGDLSLVGERGVSLSGGQRARINLARAVYREADIYLLDDPLSAVDANVGRQLFDGCIKGYLSGKTCILVTHQIHYLKAADFIVVLNEGSVENMGSYDELMKTGTEFSMLLSDQASEGSDTDKKERPAMMQGISKMSVKSDDEEGEEKVQVLEAEERQSGSLKWDVLGRYMKSVNSWCMVVMAFLVLVITQGAATTTDYWLSFWTNQVDGYIQTLPEGESPNPELDTQVGLLTTGQYLIVHGSVVLAIIILTQVRILSFVVMTMRASENLHNTIYEKLIVAVMRFFDTNPSGRVLNRFSKDMGAMDELLPRSMLETVQMYLSLASVLVLNAIALPWTLIPTTVLMFIFVFLLKWYINAAQAVKRLEGTTKSPVFGMINSTISGLSTIRSSNSQDRLLNSFDDAQNLHTSAFYTFLGGSTAFGLYLDTLCLIYLGIIMSIFILGDFGELIPVGSVGLAVSQSMVLTMMLQMAAKFTADFLGQMTAVERVLEYTKLPTEENMETGPTTPPKGWPSAGEVTFSNVYLKYSPDDPPVLKDLNFAIKSGWKVGVVGRTGAGKSSLISALFRLSDITGSIKIDGLDTQGIAKKLLRSKISIIPQEPVLFSASLRYNLDPFDNYNDEDIWRALEQVELKESIPALDYKVSEGGTNFSMGQRQLVCLARAILRSNKILIMDEATANVDPQTDALIQKTIRKQFANCTVLTIAHRLNTIMDSDRVLVMDQGVAAEFDHPYILLSNPNSKFSSMVKETGDNMSRILFEVAKTKYESDSKTADYKDDDDK
notes: Expressed in Sf9 cells by baculovirus together with EGFP; also called Sf9::Sf-ABCC2; Sf9 expressing Sf-ABCC2
Consider B2, for which, in assay [3], the binding result is “binds”.

B3: SMALP-Sf-ABCC2-FLAG (Sf-ABCC2 extracted from silkworm pupae membranes with styrene maleic acid and affinity purified) (receptor)
chain: MDKSNKNTAANGNGGQRAGEPKKRVRKKPNILSRIFVWWIFPVLITGNKRDVEEDDLIVPSKKFNSERQGEYFERYWFEEVAIAEREDRDPSLWKAMRRAYWLQYMPGAIFVLLISGLRTAQPLLFSQLLSYWSVDSEMSQQDAGLYALAMLGINFITMMCTHHNNLFVMRFSMKVKIAASSLLFRKLLRMSQVSVGDVAGGKLVNLLSNDVARFDYAFMFLHYLWVVPLQVGVVLYFVYDAAGWAPYVGLFGVIILIMPLQAGLTKLTGVVRRMTAKRTDKRIKLMSEIINGIQVIKMYAWEKPFQLVVKAARAYEMSALRKSIFIRSMFLGFMLFTERSVMFLTVLTLALTGNMISATLIYPIQQYFGIITMNVTLILPMAFASFSEMLISLERIQGFLLLDERSDIQITPKVVNGAGSKLFNNSKKEGGLETGIVLPTKYSPTEASIARPVQDEPNMADYPVQLNKVNATWADLNDNKEMTLKNISLRVRKNKLCAVIGPVGSGKTSLLQLLLRELPVTSGNLSISGTVSYASQEPWLFPATVRENILFGLEYNVAKYKEVCKVCSLLPDFKQFPYGDLSLVGERGVSLSGGQRARINLARAVYREADIYLLDDPLSAVDANVGRQLFDGCIKGYLSGKTCILVTHQIHYLKAADFIVVLNEGSVENMGSYDELMKTGTEFSMLLSDQASEGSDTDKKERPAMMQGISKMSVKSDDEEGEEKVQVLEAEERQSGSLKWDVLGRYMKSVNSWCMVVMAFLVLVITQGAATTTDYWLSFWTNQVDGYIQTLPEGESPNPELDTQVGLLTTGQYLIVHGSVVLAIIILTQVRILSFVVMTMRASENLHNTIYEKLIVAVMRFFDTNPSGRVLNRFSKDMGAMDELLPRSMLETVQMYLSLASVLVLNAIALPWTLIPTTVLMFIFVFLLKWYINAAQAVKRLEGTTKSPVFGMINSTISGLSTIRSSNSQDRLLNSFDDAQNLHTSAFYTFLGGSTAFGLYLDTLCLIYLGIIMSIFILGDFGELIPVGSVGLAVSQSMVLTMMLQMAAKFTADFLGQMTAVERVLEYTKLPTEENMETGPTTPPKGWPSAGEVTFSNVYLKYSPDDPPVLKDLNFAIKSGWKVGVVGRTGAGKSSLISALFRLSDITGSIKIDGLDTQGIAKKLLRSKISIIPQEPVLFSASLRYNLDPFDNYNDEDIWRALEQVELKESIPALDYKVSEGGTNFSMGQRQLVCLARAILRSNKILIMDEATANVDPQTDALIQKTIRKQFANCTVLTIAHRLNTIMDSDRVLVMDQGVAAEFDHPYILLSNPNSKFSSMVKETGDNMSRILFEVAKTKYESDSKTADYKDDDDK
notes: also called Sf-ABCC2 in SMALP
Consider B3, for which the binding result in assay [4] was “binds”.

For the origin of these results see patent US20250059241A1 (SYNGENTA CROP PROTECTION, published 2025).
